Measurements from patent US20030091568A1, “Inhibitors for the formation of soluble human CD23” (priority 2000, published 2003).

T1: ADAM9 (Mus musculus, UniProt Q61072)
T1 construct: expressed in transfected cells; host or cells: CHO AA8 Tet-Off cells (Clontech), clone 3, co-expressing human CD23b
T1 sequence (Q61072 206-845 limits assumed): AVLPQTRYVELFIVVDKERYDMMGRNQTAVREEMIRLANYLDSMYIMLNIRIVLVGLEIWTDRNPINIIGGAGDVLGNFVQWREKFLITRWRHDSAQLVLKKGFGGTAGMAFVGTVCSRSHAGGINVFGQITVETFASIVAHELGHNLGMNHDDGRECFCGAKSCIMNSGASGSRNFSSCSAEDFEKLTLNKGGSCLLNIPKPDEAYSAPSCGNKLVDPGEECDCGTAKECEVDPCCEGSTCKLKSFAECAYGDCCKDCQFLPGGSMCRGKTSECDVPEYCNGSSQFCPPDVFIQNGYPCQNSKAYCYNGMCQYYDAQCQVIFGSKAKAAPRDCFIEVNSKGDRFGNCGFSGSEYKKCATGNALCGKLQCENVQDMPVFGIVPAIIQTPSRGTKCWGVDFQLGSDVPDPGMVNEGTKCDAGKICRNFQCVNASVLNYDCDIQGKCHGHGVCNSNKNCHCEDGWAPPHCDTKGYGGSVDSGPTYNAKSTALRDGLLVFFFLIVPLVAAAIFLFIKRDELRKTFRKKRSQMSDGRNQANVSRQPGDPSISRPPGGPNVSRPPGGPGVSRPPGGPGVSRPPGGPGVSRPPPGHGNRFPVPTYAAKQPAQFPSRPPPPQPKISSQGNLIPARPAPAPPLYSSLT


Molecular target: T1, ADAM9
Experiment: CD23 shedding in CHO AA8 clone 3 cells with tet-regulated ADAM9 "On" (s-CD23 ELISA)
Format: cell-based, murine
Settings: CHO AA8 clone 3, absence of tetracycline (ADAM9 "On"), 16 hours; 2 μM batimastat or 20 nM-1 μM TIMP; FIG. 3A
Protocol: CHO AA8 cells (Clontech), which constitutively express human CD23b and a tet regulatable ADAM9 (clone 3, described above), were cultured in the absence of tetracycline (ADAM9 expression “On”) as well as the presence or absence of the metalloproteinase inhibitor batimastat (BB-94, British Biotechnology) as a broad spectrum MMP inhibitor, as well as various concentrations of either TIMP-1, TIMP-2 or TIMP-3. After 16 hours, aliquots of the respective culture supernatants were analysed by ELISA for the formation of s-CD23 (The Binding Site).
[…] cells were cultured in the presence (ADAM9 expression “Off”) or absence (ADAM9 expression “On”) of tetracylin (Tc). Under both conditions, the influence of batimastat (BB-94) on CD23 shedding was analyzed. The concentration of s-CD23 in the culture supernatants was determined by ELISA. In parallel, the produced s-CD23 cleavage products were analyzed by Western blot analyses (FIG. 4). Untransfected CHO AA8 cells (WT) were used as a negative control in the ELISA assays. In the absence of Tc (ADAM9 expression “On”), about 2-3 times the amount of s-CD23 was produced compared to cells kept in the presence of Tc (ADAM9 expression “Off”). […] The 33 kDa form of s-CD23 and, in minor amounts, the 25 kDa cleavage fragment were detected by Western blot analyses. […]

Molecule	block of proteolytic release of CD23 from the membrane (formation of s-CD23 by ELISA)
TIMP-1: tissue inhibitor of metalloproteinases 1	could not be inhibited
TIMP-3: tissue inhibitor of metalloproteinases 3 (protein, UniProt P35625 24-211, looked up) Metalloproteinase inhibitor 3: CTCSPSHPQDAFCNSDIVIRAKVVGKKLVKEGPFGTLVYTIKQMKMYRGFTKMPHVQYIHTEASESLCGLKLEVNKYQYLLTGRVYDGKMYTGLCNFVERWDQLTLSQRKGLNYRYHLGCNCKIKSCYYLPCFVTSKNECLWTDMLSNFGYPGYQSKHYACIRQKGGYCSWYRGWAPPDKSIINATDP	could not be inhibited
